Data: PMC7337490

Target: survivin;borealin 10-109;INCENP 1-80 (CPI80) (human;human;human) (UniProt O15392+Q53HL2+Q9NQS7)
Test: EMSA
Conditions: shift between 2 and 3 uM protein; 100 mM NaCl, 20 mM Tris-HCl pH 7.4, 1 mM DTT, 2 h on ice; MST 0.04 uM duplex, 0.1-200 uM protein; EMSA 0.15 pmol plasmid in 20 ul, 0.8% agarose

survivin;borealin 10-109;INCENP 1-80 (CPI80) (human;human;human), sequence (O15392 whole entry, chain 1 of 3): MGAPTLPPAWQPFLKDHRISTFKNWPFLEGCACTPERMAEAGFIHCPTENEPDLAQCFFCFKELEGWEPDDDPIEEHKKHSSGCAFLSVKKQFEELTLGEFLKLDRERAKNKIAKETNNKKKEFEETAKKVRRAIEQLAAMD
survivin;borealin 10-109;INCENP 1-80 (CPI80) (human;human;human), sequence (Q53HL2 10-109, chain 2 of 3): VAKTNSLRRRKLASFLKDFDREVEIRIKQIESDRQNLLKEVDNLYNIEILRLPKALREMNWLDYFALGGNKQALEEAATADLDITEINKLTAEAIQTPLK
survivin;borealin 10-109;INCENP 1-80 (CPI80) (human;human;human), sequence (Q9NQS7 1-80, chain 3 of 3): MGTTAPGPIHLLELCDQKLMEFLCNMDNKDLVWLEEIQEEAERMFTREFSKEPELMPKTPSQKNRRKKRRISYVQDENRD

## BamHI-linearized pBluescript (2.9 kb)
  K half: 3000 nM
